The values below are quoted from earlier work in PMC4492699.

The series deals with HER2 (Homo sapiens) (UniProt P04626).

For the substance trastuzumab, the Kd is 0.1 nM.

For orientation: Kd means the equilibrium constant for the complex coming apart.
